This test addresses His-GB1-tagged C-domain of CRT_(Del52) (human) (UniProt P27797). Put plainly: non-reducing SDS-PAGE with immunoblot. On the technique in general: In western blotting, separated proteins are transferred to a membrane and probed.

As usually defined, the stoichiometry N is the number of molecules, sites or subunits per partner or assembly.

With “His-GB1-tagged C-domain of CRT_(Del52) (from UniProt P27797 357-366) (domain or fragment)”, the stoichiometry N is 2.

The values are drawn from article doi:10.1101/2020.09.13.295485.
